# Where a chain is given by its changes, count along the chain named.
# B1: unnamed (protein)
# chain: NPYARGPNPTAASLEASAGPFTVRSFTVSRPSGYGAGTVYYPTNAGGTVGAIAIVPGYTARQSSIKWWGPRLASHGFVVITIDTNSTLDQPSSRSSQQMAALRQVASLNGTSSSPIYGKVDTARMGVMGWSMGGGGSLISAANNPSLKAAAPQAPWDSSTNFSSVTVPTLIFACENDSIAPVNSSALPIYDSMSRNAKQFLEINGGSHFCANSGNSNQALIGKKGVAWMKRFMDNDTRYSTFACENPNSTRVSDFRTANCS
# B2: unnamed (protein)
# chain: B1 chain with I179A, F209S
# B3: unnamed (protein)
# chain: B1 chain with R94A, F209S
# B4: unnamed (protein)
# chain: B1 chain with W130H, F209S
# B5: unnamed (protein)
# chain: B1 chain with D177A, F209S
# B6: unnamed (protein)
# chain: B1 chain with M132A, F209S
# B7: unnamed (protein)
# chain: B1 chain with S185H, F209S
# B8: unnamed (protein)
# chain: B1 chain with S131A, F209S
# B9: unnamed (protein)
# chain: B1 chain with Q153L, F209S
# B10: unnamed (protein)
# chain: B1 chain with C174A, F209S
# B11: unnamed (protein)
# chain: B1 chain with W130A, F209S
# B12: unnamed (protein)
# chain: MNFPRASRLMQAAVLGGLMAVSAAATAQTNPYARGPNPTAASLEASAGPFTVRSFTVSRPSGYGAGTVYYPTNAGGTVGAIAIVPGYTARQSSIKWWGPRLASHGFVVITIDTNSTLDQPSSRSSQQMAALRQVASLNGTSSSPIYGKVDTARMGVMGWSMGGGGSLISAANNPSLKAAAPQAPWDSSTNFSSVTVPTLIFACENDSIAPVNSSALPIYDSMSRNAKQFLEINGGSASCANSGNSNQALIGKKGVAWMKRFMDNDTRYSTFACENPNSTRVSDFRTANCS
# Substrate: PET
# Test: Proxy for plastic degradation [Released monomer concentration (HPLC/LC-MS) (TPA)]
# Settings: pH 9; part of the chain shown
row,Protein,Proxy for plastic degradation [nM]
1,B1,3.5
2,B4,20

# Substrate: PET
# Test: Proxy for plastic degradation [Released monomer concentration (HPLC/LC-MS) (MHET)]
# Settings: pH 9; part of the chain shown
row,Protein,Proxy for plastic degradation [nM]
1,B1,4
2,B4,20

# Substrate: BHET
# Test: Proxy for plastic degradation [Released monomer concentration (HPLC/LC-MS) (MHET+TPA)]
# Settings: pH 7.5; part of the chain shown
row,Protein,Proxy for plastic degradation [µM]
1,B1,1.6
2,B4,1.94

# Same assay, conditions: pH 7.5
row,Protein,Proxy for plastic degradation [µM]
1,B2,0.54
2,B3,0.6
3,B5,0.03
4,B6,0.57
5,B7,0.45
6,B8,0.06
7,B9,1.26
8,B10,0.26
9,B11,0.23
10,B12,0.03

# Substrate: PET
# Test: Proxy for plastic degradation [Released monomer concentration (HPLC/LC-MS) (MHET)]
# Settings: pH 9
row,Protein,Proxy for plastic degradation [nM]
1,B3,1
2,B9,8
